The source of these data is US20210347867A1 (GEORG AUGUST UNIVERSIT T G TTINGEN STIFTUNG FFENTLICHEN …, published 2021).

Where two headings read alike, the source gives them in different places.

In general, EC50 refers to the concentration giving half of the maximal effect. A lower EC50 goes with a more potent agent. What is called EC50 (read off the curve) is the concentration that produces a half-maximal response.

Experiment [1] addresses T1, amyloid peptide AβpE3-42 (UniProt P05067 674-713, N-terminal pyroglutamate (pE) at Aβ position 3).
T1 construct: domain: AβpE3-42; Bought synthetic peptide; also called AβpGlu3-42; Aβ(Glp3)3-42
Nature of the experiment: ELISA, plate coated with AβpE3-42, antibody titrated, blank-subtracted OD650. The procedure:
(§1) Each well of a […] MaxiSorp plate (Nunc) was coated with 50 μL aliquots of 200 ng/mL of 1-42, pE3-42 or 4-42 amyloid peptides in PBS and incubated overnight at 4° C. The wells were washed 3× with PBS-T (0.1% Tween20) and blocked with 150 μL of 5% milk in PBS/0.05% Tween20 per well. The wells were then incubated at RT with shaking for 1 hour and washed 3× with PBS-T (0.1% Tween20). 50 μl of primary antibody serially diluted in 1% milk PBS/0.05% Tween20 was added to the wells of the assay plate using a 3-fold dilution series starting from ˜100 μg/mL. The incubation and washing step was then repeated. Anti-human kappa chain HRP (Sigma A7164-1 mL) was diluted 4,000-fold in PBS/1% milk/0.05% Tween20 and 50 μl added to each well. The incubation and washing step was repeated and then 75 μL of K-Blue substrate (Neogen) was added per well and incubated for 5-10 minutes at RT. The reaction was stopped by adding 50 μl of RED STOP solution (Neogen) to each well and the optical density was read at 650 nm.
Therefore, F67Y, Y68N, I39W and an additional variant that combined F67Y and Y68N were generated (Table 2) and binding to Aβ1-42, AβpE3-42 and 4-42 was investigated. […] Five additional variants of the heavy chain were generated with the following mutations, S53M, S53H, R100H, L103R and L103H (Table 4b). In addition, five variants of the light chain were also generated RKF (N92W), RKG (N92Y), RKH (N92H), RKI (L94R) and RIC (L94H).
(In general: ELISA stands for enzyme-linked immunosorbent assay.)

For experiment [2], the target named is T1, amyloid peptide AβpE3-42. Nature of the experiment: ELISA, plate coated with AβpE3-42 (target by legend paragraph 24), antibody titrated, A650nm. The procedure:
as §1

Experiment [3] has as its target T1, amyloid peptide AβpE3-42. Nature of the experiment: ELISA, plate coated with AβpE3-42, antibody titrated, signal as % Max. As for the experimental part: as §1
Experiment [4] has as its target T1, amyloid peptide AβpE3-42. Nature of the experiment: ELISA, plate coated with AβpE3-42, antibody titrated, A650nm. As for the experimental part: as §1
Experiment [5] concerns the target T1, amyloid peptide AβpE3-42. Nature of the experiment: ELISA, plate coated with AβpE3-42 (PSL), antibody titrated, blank-subtracted OD650. The procedure: as §1
In another experiment the target is T2, amyloid peptide Aβ4-42 (UniProt P05067 675-713).
T2 construct: domain: Aβ4-42; Bought synthetic peptide; also called Anaspec Aβ4-42
Nature of the experiment: ELISA, plate coated with Aβ4-42 from PSL, antibody titrated, A650nm.

Experiment [6] deals with T1, amyloid peptide AβpE3-42. Nature of the experiment: ELISA, plate coated with AβpE3-42 from PSL, antibody titrated, A650nm.
For experiment [7], the target named is T1, amyloid peptide AβpE3-42. Nature of the experiment: ELISA, plate coated with AβpE3-42 from California peptides (Cal Hu), antibody titrated, A650nm.
Experiment [8] concerns the target T1, amyloid peptide AβpE3-42. Nature of the experiment: ELISA, plate coated with AβpE3-42, antibody titrated, A650nm. As for the experimental part: as §1
This is another data set of the same source.

Experiment [9] concerns the target T1, amyloid peptide AβpE3-42. Nature of the experiment: ELISA, plate coated with AβpE3-42 from PSL, antibody titrated, A650nm. The procedure:
as §1
The source holds these as a separate data set.

T1 sequence (P05067 674-713 limits assumed): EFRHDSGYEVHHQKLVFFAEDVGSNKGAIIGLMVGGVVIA
T2 sequence (P05067 675-713 limits assumed): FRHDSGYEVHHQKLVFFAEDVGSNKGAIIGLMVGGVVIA

B1: (rcNT4X_S6A) R1 (antibody, V domains shown)
VH: QVQLQESGPGLVKPSETLSLTCTVSGFSLSSYGISWIRQPPGKGLEWIGVMWSGGITDFYAAFISRVTISRDTSKNQVSLKLSSVTAADTAVYYCARGSRYALDYWGQGTLVTVSS
VL: DIQMTQSPSSLSASVGDRVTITCRASQDISNYLNWYQQKPGKAPKLLIYYTSRLHSGVPSRFSGSGSGTDFTLTISSLQPEDFATYYCQQGNTLPPTFGGGTKLEIK
notes: also called RHS6/RKA
As for B1, the binding result with amyloid peptide AβpE3-42 [1] is listed as “no binding (tested: about 120 ug/ml)”.

B2: (rcNT4X_S8A) R1 (antibody, V domains shown)
VH: QVQLQESGPGLVKPSETLSLTCTVSGFSLSSYGISWIRQPPGKGLEWIGVMWSGGITNFYPSLKSRVTISRDTSKNQVSLKLSSVTAADTAVYYCARGSRYALDYWGQGTLVTVSS
VL: DIQMTQSPSSLSASVGDRVTITCRASQDISNYLNWYQQKPGKAPKLLIYYTSRLHSGVPSRFSGSGSGTDFTLTISSLQPEDFATYYCQQGNTLPPTFGGGTKLEIK
notes: also called RHS8/RKA
Regarding B2, the binding result with amyloid peptide AβpE3-42 [1] is given as “no binding (tested: about 120 ug/ml)”.

B3: humanized NT4X-167 RHB/RKB (antibody, mouse IgG1, V domains shown)
VH: QVQLQESGPGLVKPSETLSLTCTVSGFSLTSYGIHWIRQPPGKGLEWLGVMWSGGITDFYAAFISRLTISRDTSKNQVSLKMSSVTAADTAVYYCARGSRYALDYWGQGTLVTVSS
VL: DIQMTQSPSSLSASVGDRVTITCRASQDISNYLNWYQQKPGGAPKLLIYYTSRLHSGVPSRFSGSGSGTDYTLTISSLQPEDFATYFCQQGNTLPPTFGGGTKLEIK
notes: also called HB/KB
Regarding B3, the EC50 is 2.74 µg/mL with amyloid peptide AβpE3-42 [2] and 0.377 µg/mL in the experiment with amyloid peptide AβpE3-42 [3].

B4: humanized NT4X-167 RHK/RKA (antibody, mouse IgG1, V domains shown)
VH: QVQLQESGPGLVKPSETLSLTCTVSGGSLTSYGIHWIRQPPGKGLEWLGVMWSGGITDFYAAFISRLTISRDTSKNQVSLKMSSVTAADTAVYYCARGSRYALDYWGQGTLVTVSS
VL: DIQMTQSPSSLSASVGDRVTITCRASQDISNYLNWYQQKPGKAPKLLIYYTSRLHSGVPSRFSGSGSGTDFTLTISSLQPEDFATYYCQQGNTLPPTFGGGTKLEIK
On to B4, for which the binding result in the experiment with amyloid peptide AβpE3-42 [4] is “binds”.

B5: humanized NT4X-167 RHM/RKA (antibody, mouse IgG1, V domains shown)
VH: QVQLQESGPGLVKPSETLSLTCTVSGFSLSSYGIHWIRQPPGKGLEWLGVMWSGGITDFYAAFISRLTISRDTSKNQVSLKMSSVTAADTAVYYCARGSRYALDYWGQGTLVTVSS
VL: DIQMTQSPSSLSASVGDRVTITCRASQDISNYLNWYQQKPGKAPKLLIYYTSRLHSGVPSRFSGSGSGTDFTLTISSLQPEDFATYYCQQGNTLPPTFGGGTKLEIK
With B5, the binding result with amyloid peptide AβpE3-42 [4] was “binds”.

B6: humanized NT4X-167 RHR/RKA (antibody, mouse IgG1, V domains shown)
VH: QVQLQESGPGLVKPSETLSLTCTVSGFSLTSYGIHWIRQPPGKGLEWLGVMWSGGITDFYAAFISRLTISRDTSKNQVSLKLSSVTAADTAVYYCARGSRYALDYWGQGTLVTVSS
VL: DIQMTQSPSSLSASVGDRVTITCRASQDISNYLNWYQQKPGKAPKLLIYYTSRLHSGVPSRFSGSGSGTDFTLTISSLQPEDFATYYCQQGNTLPPTFGGGTKLEIK
Consider B6, for which, in the experiment with amyloid peptide AβpE3-42 [4], the binding result is listed as “binds”.

B7: humanized NT4X-167 RHB/RKA (antibody, mouse IgG1, V domains shown)
VH: QVQLQESGPGLVKPSETLSLTCTVSGFSLTSYGIHWIRQPPGKGLEWLGVMWSGGITDFYAAFISRLTISRDTSKNQVSLKMSSVTAADTAVYYCARGSRYALDYWGQGTLVTVSS
VL: DIQMTQSPSSLSASVGDRVTITCRASQDISNYLNWYQQKPGKAPKLLIYYTSRLHSGVPSRFSGSGSGTDFTLTISSLQPEDFATYYCQQGNTLPPTFGGGTKLEIK
notes: also called BA
For B7, the values for the EC50 in the experiment with amyloid peptide AβpE3-42 [2] and with amyloid peptide AβpE3-42 [3] were 3.86 µg/mL and 0.341 µg/mL, respectively.

B8: humanized NT4X-167 RHP/RKA (antibody, mouse IgG1, V domains shown)
VH: QVQLQESGPGLVKPSETLSLTCTVSGFSLTSYGIHWIRQPPGKGLEWLGVMWSGGITDFYAAFISRLTISVDTSKNQVSLKMSSVTAADTAVYYCARGSRYALDYWGQGTLVTVSS
VL: DIQMTQSPSSLSASVGDRVTITCRASQDISNYLNWYQQKPGKAPKLLIYYTSRLHSGVPSRFSGSGSGTDFTLTISSLQPEDFATYYCQQGNTLPPTFGGGTKLEIK
For B8, in the experiment with amyloid peptide AβpE3-42 [4], the binding result is listed as “binds”.

B9: humanized NT4X-167 RHO/RKA (antibody, mouse IgG1, V domains shown)
VH: QVQLQESGPGLVKPSETLSLTCTVSGFSLTSYGIHWIRQPPGKGLEWLGVMWSGGITDFYAAFISRVTISRDTSKNQVSLKMSSVTAADTAVYYCARGSRYALDYWGQGTLVTVSS
VL: DIQMTQSPSSLSASVGDRVTITCRASQDISNYLNWYQQKPGKAPKLLIYYTSRLHSGVPSRFSGSGSGTDFTLTISSLQPEDFATYYCQQGNTLPPTFGGGTKLEIK
Consider B9, for which, in the experiment with amyloid peptide AβpE3-42 [4], the binding result is “binds”.

B10: humanized NT4X-167 RHN/RKA (antibody, mouse IgG1, V domains shown)
VH: QVQLQESGPGLVKPSETLSLTCTVSGFSLTSYGIHWIRQPPGKGLEWIGVMWSGGITDFYAAFISRLTISRDTSKNQVSLKMSSVTAADTAVYYCARGSRYALDYWGQGTLVTVSS
VL: DIQMTQSPSSLSASVGDRVTITCRASQDISNYLNWYQQKPGKAPKLLIYYTSRLHSGVPSRFSGSGSGTDFTLTISSLQPEDFATYYCQQGNTLPPTFGGGTKLEIK
For B10, the binding result with amyloid peptide AβpE3-42 [4] is “binds”.

B11: humanized NT4X-167 RHQ/RKA (antibody, mouse IgG1, V domains shown)
VH: QVQLQESGPGLVKPSETLSLTCTVSGFSLTSYGIHWIRQPPGKGLEWLGVMWSGGITDFYAAFISRLTISRDTSKNQFSLKMSSVTAADTAVYYCARGSRYALDYWGQGTLVTVSS
VL: DIQMTQSPSSLSASVGDRVTITCRASQDISNYLNWYQQKPGKAPKLLIYYTSRLHSGVPSRFSGSGSGTDFTLTISSLQPEDFATYYCQQGNTLPPTFGGGTKLEIK
Turning to B11, the binding result with amyloid peptide AβpE3-42 [4] is reported as “binds”.

B12: humanized NT4X-167 RHT/RKA (antibody, mouse IgG1, V domains shown)
VH: QVQLQESGPGLVKPSETLSLTCTVSGFSLTSYGIHWIRQPPGKGLEWIGVMWSGGITDFYAAFISRVTISRDTSKNQVSLKLSSVTAADTAVYYCARGSRYALDYWGQGTLVTVSS
VL: DIQMTQSPSSLSASVGDRVTITCRASQDISNYLNWYQQKPGKAPKLLIYYTSRLHSGVPSRFSGSGSGTDFTLTISSLQPEDFATYYCQQGNTLPPTFGGGTKLEIK
notes: also called TA
For the molecule B12, the binding result in the experiment with amyloid peptide AβpE3-42 [5] was “binds”.

B13: humanized NT4X-167 RHL/RKA (antibody, mouse IgG1, V domains shown)
VH: QVQLQESGPGLVKPSETLSLTCTVSGFSITSYGIHWIRQPPGKGLEWLGVMWSGGITDFYAAFISRLTISRDTSKNQVSLKMSSVTAADTAVYYCARGSRYALDYWGQGTLVTVSS
VL: DIQMTQSPSSLSASVGDRVTITCRASQDISNYLNWYQQKPGKAPKLLIYYTSRLHSGVPSRFSGSGSGTDFTLTISSLQPEDFATYYCQQGNTLPPTFGGGTKLEIK
For the molecule B13, in the experiment with amyloid peptide AβpE3-42 [4], the binding result is reported as “binds”.

B14: murine NT4X-167 antibody (antibody, V domains shown)
VH: QVQLKQSGPGLVQPSQSLSITCTVSGFSLTSYGIHWVRQSPGKGLEWLGVMWSGGITDFYAAFISRLSISRDISKSQVFFKMNSLQADDTAIYYCARGSRYALDYWGQGTSVSVSS
VL: DIQMTQTTSSLSASLGDRVTISCRASQDISNYLNWYQQKPDGTVKLLIYYTSRLHSGVPSRFSGSGSGTDYSLTISNLEQEDIATYFCQQGNTLPPTFGGGTKLEIK
notes: Mouse hybridoma antibody; also called original mouse NT4X antibody
In the case of B14, the EC50 was 2.4 µg/mL with amyloid peptide AβpE3-42 [2], 24.9 nM in the experiment with amyloid peptide AβpE3-42 [6], 15.7 nM with amyloid peptide AβpE3-42 [7] and 24.9 nM with amyloid peptide AβpE3-42 [9]. For the same molecule, the binding result in the experiment with amyloid peptide Aβ4-42 is “binds”. Besides, the “EC50 (read off the curve)” value with amyloid peptide AβpE3-42 [8] and in the experiment with amyloid peptide AβpE3-42 [4] was about 0.5 µg/mL each time.
